This is an account of results in patent US20240409617A1.

The target of assay [1] is SARS-CoV-2 receptor binding domain (RBD), recombinant, biotinylated (SARS-CoV-2).
For assay [2], the target named is SARS-CoV-2 spike protein on stably transduced 293T cells (SARS-CoV-2). The experiment in a line: FACS binding curve, percent of cells labeled.

B1: Ab2-7 IgG (antibody, V domains shown)
VH: QVTLKESGPTRVKPTQTLTLTCTFSGFSLSTTGVGVGWIRQPPGKALEWLALIYWNDDKRYSPSLKSRLTITKDTSKNQVVLTMTNMDPVDTATYYCARISGSGYFYPFDIWGQGTTVTVSS
VL: NFMLTQPHSVSESPGKTVTISCTRSSGSIASNYVQWYQQRPGSSPTTVIYEDNQRPSGVPDRFSGSIDSSSNSASLTISGLKAEDEADYYCQSYDSSSLWVFGGGTKLTVL
Turning to B1, in assay [1], the Kd (commonly a measure of binding affinity in units of concentration) amounted to 268 pM; the koff (as a rule, the rate constant with which the complex falls apart) worked out at 3.93e-05 s⁻¹; the on-rate constant (kon) – broadly, the rate constant with which the complex forms – was found to be 147000 M⁻¹ s⁻¹. The fold shift of the FACS binding curve to the right, IgG against scFv-Fc in assay [2] turned out to be 10 fold.
